Numbering of substitutions follows the chain as printed. Names may count otherwise.

The series deals with the molecule itself. Nature of the series: SEC. On the technique in general: SEC sorts molecules by how far they enter the pores of the column.

B1: CP-Ser (αβ heterodimer of S100A8(C42S) and S100A9(C3S)) (complex, human)
chain 1: MLTELEKALNSIIDVYHKYSLIKGNFHAVYRDDLKKLLETESPQYIRKKGADVWFKELDINTDGAVNFQEFLILVIKMGVAAHKKSHEESHKE
chain 2: MTSKMSQLERNIETIINTFHQYSVKLGHPDTLNQGEFKELVRKDLQNFLKKENKNEKVIEHIMEDLDTNADKQLSFEEFIMLMARLTWASHEKMHEGDEGPGHHHKPGLGEGTP
In the case of B1, the binding result is “binds”.

B2: CP-Ser(E111A) (αβ heterodimer) (complex, human)
chain 1: B1 chain 1
chain 2: B1 chain 2 with E111A
Consider B2, for which the binding result was “binds”.

B3: CP-Ser(H103A) (αβ heterodimer) (complex, human)
chain 1: B1 chain 1
chain 2: B1 chain 2 with H103A
B3: the binding result is “binds”.

B4: CP-Ser-Δ101 (αβ heterodimer) (complex, human)
chain 1: B1 chain 1
chain 2: MTSKMSQLERNIETIINTFHQYSVKLGHPDTLNQGEFKELVRKDLQNFLKKENKNEKVIEHIMEDLDTNADKQLSFEEFIMLMARLTWASHEKMHEGDEGP
As to B4, the binding result is recorded as “binds”.

B5: CP-Ser(E99A) (αβ heterodimer) (complex, human)
chain 1: B1 chain 1
chain 2: B1 chain 2 with E99A
For B5, the binding result is “binds”.

B6: CP-Ser-AAA (αβ heterodimer) (complex, human)
chain 1: B1 chain 1
chain 2: B1 chain 2 with H103A, H104A, H105A
As to B6, the binding result is recorded as “binds”.

B7: CP-Ser-AAA(L109H)(E111H) (αβ heterodimer) (complex, human)
chain 1: B1 chain 1
chain 2: B1 chain 2 with H103A, H104A, H105A, L109H, E111H
Take B7: the binding result is given as “binds”.

B8: CP-Ser-AAA(K106H) (αβ heterodimer) (complex, human)
chain 1: B1 chain 1
chain 2: B1 chain 2 with H103A, H104A, H105A, K106H
Regarding B8, the binding result is listed as “binds”.

B9: CP-Ser-AHA (αβ heterodimer) (complex, human)
chain 1: B1 chain 1
chain 2: B1 chain 2 with H103A, H105A
As to B9, the binding result was “binds”.

B10: CP-Ser(K106A) (αβ heterodimer) (complex, human)
chain 1: B1 chain 1
chain 2: B1 chain 2 with K106A
For B10, the binding result is on record as “binds”.

B11: CP-Ser(E96A) (αβ heterodimer) (complex, human)
chain 1: B1 chain 1
chain 2: B1 chain 2 with E96A
Take B11: the binding result is “binds”.

B12: CP-Ser(H105A) (αβ heterodimer) (complex, human)
chain 1: B1 chain 1
chain 2: B1 chain 2 with H105A
Regarding B12, the binding result is recorded as “binds”.

B13: CP-Ser-AHA(K106H) (αβ heterodimer) (complex, human)
chain 1: B1 chain 1
chain 2: B1 chain 2 with H103A, H105A, K106H
As to B13, the binding result was “binds”.

B14: CP-Ser-AAE (αβ heterodimer) (complex, human)
chain 1: B1 chain 1
chain 2: B1 chain 2 with H103A, H104A, H105E
Consider B14, for which the binding result was “binds”.

B15: CP-Ser(H104A) (αβ heterodimer) (complex, human)
chain 1: B1 chain 1
chain 2: B1 chain 2 with H104A
Regarding B15, the binding result is on record as “binds”.

B16: CP-Ser(D98A) (αβ heterodimer) (complex, human)
chain 1: B1 chain 1
chain 2: B1 chain 2 with D98A
In the case of B16, the binding result is on record as “binds”.

B17: CP-Ser-mT (αβ heterodimer) (complex, human | mouse)
chain 1: B1 chain 1
chain 2: MTSKMSQLERNIETIINTFHQYSVKLGHPDTLNQGEFKELVRKDLQNFLKKENKNEKVIEHIMEDLDTNADKQLSFEEFIMLMARLTWASHEKMHENNPRGHGHSHGKGCGK
In the case of B17, the binding result is “binds”.

For the origin of these results see article PMC3892207 (Journal of the American Chemical Society, 2013).
